Source: publication doi:10.1101/093708 (bioRxiv, 2016)

Target: the molecule itself
Test: cryo-EM structure; EcFtsZ 0.5 mg/mL in 50 mM HEPES-KOH, 100 mM potassium acetate, 5 mM magnesium acetate, pH 7.7, 20 °C, 0.1 mM GMPCPP; helical reconstruction of filaments in RELION

B1: Escherichia coli FtsZ, full length, untagged, wildtype (natural protein, E. coli, UniProt P0A9A6 1-383, looked up)
chain: MFEPMELTNDAVIKVIGVGGGGGNAVEHMVRERIEGVEFFAVNTDAQALRKTAVGQTIQIGSGITKGLGAGANPEVGRNAADEDRDALRAALEGADMVFIAAGMGGGTGTGAAPVVAEVAKDLGILTVAVVTKPFNFEGKKRMAFAEQGITELSKHVDSLITIPNDKLLKVLGRGISLLDAFGAANDVLKGAVQGIAELITRPGLMNVDFADVRTVMSEMGYAMMGSGVASGEDRAEEAAEMAISSPLLEDIDLSGARGVLVNITAGFDLRLDEFETVGNTIRAFASDNATVVIGTSLDPDMNDELRVTVVATGIGMDKRPEITLVTNKQVQQPVMDRYQQHGMAPLTQEQKPVAKVVNDNAPQTAKEPDYLDIPAFLRKQAD
notes: also called EcFtsZ; E. coli FtsZ; source: E. coli C41 (DE3), purified (GTP and calcium-induced precipitation, Mono Q)
binding result: binds
